The record followed here is patent US20150197559A1 (University of California, published 2015).

The Kd is the constant that tells how readily two partners part at equilibrium.

Test [1] concerns the target T1, BoNT/B1 (Clostridium botulinum, UniProt P10844 2-1291).
T1 sequence: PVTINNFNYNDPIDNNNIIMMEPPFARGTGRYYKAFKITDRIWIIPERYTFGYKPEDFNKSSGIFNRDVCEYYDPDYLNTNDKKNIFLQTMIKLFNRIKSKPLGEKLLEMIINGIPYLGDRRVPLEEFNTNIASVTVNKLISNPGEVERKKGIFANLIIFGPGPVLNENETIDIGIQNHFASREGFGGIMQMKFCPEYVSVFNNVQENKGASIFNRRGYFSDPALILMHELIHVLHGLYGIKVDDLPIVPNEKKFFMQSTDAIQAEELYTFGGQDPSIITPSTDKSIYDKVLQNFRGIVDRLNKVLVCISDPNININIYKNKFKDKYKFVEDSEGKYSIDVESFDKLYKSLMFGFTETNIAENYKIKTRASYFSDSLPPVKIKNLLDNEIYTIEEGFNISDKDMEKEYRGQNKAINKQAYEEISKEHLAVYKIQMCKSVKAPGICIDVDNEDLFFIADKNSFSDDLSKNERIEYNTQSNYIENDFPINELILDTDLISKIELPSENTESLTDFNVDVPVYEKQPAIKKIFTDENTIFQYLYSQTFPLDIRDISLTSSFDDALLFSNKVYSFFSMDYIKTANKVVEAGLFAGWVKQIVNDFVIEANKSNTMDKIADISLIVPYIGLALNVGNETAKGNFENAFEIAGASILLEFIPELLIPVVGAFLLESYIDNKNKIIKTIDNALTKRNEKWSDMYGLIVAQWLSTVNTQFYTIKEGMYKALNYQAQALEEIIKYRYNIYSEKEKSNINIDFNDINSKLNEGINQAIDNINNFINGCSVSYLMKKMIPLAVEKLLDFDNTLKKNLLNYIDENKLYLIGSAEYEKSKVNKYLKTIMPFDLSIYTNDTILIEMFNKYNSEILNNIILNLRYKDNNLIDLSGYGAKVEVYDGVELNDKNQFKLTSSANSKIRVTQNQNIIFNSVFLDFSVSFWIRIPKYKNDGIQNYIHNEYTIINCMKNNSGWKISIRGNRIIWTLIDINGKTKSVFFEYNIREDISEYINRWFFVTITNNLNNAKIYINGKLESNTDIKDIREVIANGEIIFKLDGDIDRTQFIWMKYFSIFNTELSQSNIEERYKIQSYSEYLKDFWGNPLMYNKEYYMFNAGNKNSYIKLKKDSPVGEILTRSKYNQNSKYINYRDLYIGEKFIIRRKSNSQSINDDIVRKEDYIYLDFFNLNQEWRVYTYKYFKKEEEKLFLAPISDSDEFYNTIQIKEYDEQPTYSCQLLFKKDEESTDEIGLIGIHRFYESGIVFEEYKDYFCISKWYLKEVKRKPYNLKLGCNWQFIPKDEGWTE
The test is described as follows: yeast-displayed scFv, flow cytometry; reference parental scFv 1B18. In general terms: A flow cytometer gives signals particle by particle.

Test [2] deals with T1, BoNT/B1. Nature of the test: flow cytometry, yeast-displayed affinity matured scFv.
The target of test [3] is T2, BoNT/A1 (Hall hyper) (Clostridium botulinum, UniProt P0DPI0 2-1296). Nature of the test: flow cytometry, yeast-displayed scFv, soluble toxin.
In test [4] the target is T2, BoNT/A1 (Hall hyper). The test is described as follows: flow cytometry, yeast-displayed scFv, soluble BoNT/A1.
Test [5] concerns the target T2, BoNT/A1 (Hall hyper). The test is described as follows: flow cytometry, yeast-displayed scFv, soluble toxin. This is another data set of the same source.
In test [6] the target is T1, BoNT/B1. Nature of the test: KinExA flow fluorimetry, IgG in solution.

B1: 2B18.1 scFv (scFv)
scFv: QVQLVQSGGGLVQPGGSRRLSCAASGFYFNAYWMTWVRQAPGKGLEWVANINLDGTEIYYLDSVKGRFTVSRDNVKNSVFLQMSSLRVEDTAVYFCARLEWGGRNGWVSPWGQGTLVTVSSGGGGSGGGGSGGGGSDIVMTQSPSSLSASVGDRVSISCRASQSISSYLNWYQQKPGKAPKLLIYKTSSLESGVPSRFSGRGSGTDFTLTISSLQPEDFATYYCQQSYSTPLTFGGGTKVEIKR
On to B1, for which the “Fold increase in affinity scFv (KD wild type/KD matured)” value in test [1] is 11.4 fold. Besides, the equilibrium dissociation constant (Kd) in test [2] amounted to 638 pM.

B2: ING2 scFv (scFv, V domains shown)
VH: QVQLVQSGAEVKKPGSSVKVSCKASGDTFNRNAIAWVRQAPGQGLEWMGRIIPNLRTTHYAQKFQGRVAITADKHTNTVFMELSSLRSEDTAVYYCARDPYYYSYMDVWGKGTTVTVSS
VL: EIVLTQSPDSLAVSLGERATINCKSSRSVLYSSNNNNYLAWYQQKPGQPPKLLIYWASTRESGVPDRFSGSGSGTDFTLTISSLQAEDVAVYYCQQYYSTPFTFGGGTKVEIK
B2: the values for the equilibrium dissociation constant (Kd) in test [3], in test [4] and in test [5] were 238 pM, 250 pM and 240 pM, respectively.

B3: 2B18.1 IgG (antibody, V domains shown)
VH: QVQLVQSGGGLVQPGGSRRLSCAASGFYFNAYWMTWVRQAPGKGLEWVANINLDGTEIYYLDSVKGRFTVSRDNVKNSVFLQMSSLRVEDTAVYFCARLEWGGRNGWVSPWGQGTLVTVSS
VL: DIVMTQSPSSLSASVGDRVSISCRASQSISSYLNWYQQKPGKAPKLLIYKTSSLESGVPSRFSGRGSGTDFTLTISSLQPEDFATYYCQQSYSTPLTFGGGTKVEIKR
Take B3: binding in test [6] was put at a Kd of 72.4 pM. In other words, the picomolar range.
